Experimental data reported in doi:10.1101/2022.04.14.488403 (bioRxiv, 2022).

Experiments:
K5:I-E^k = assay: biomembrane force probe
human CD3γε ECD = human CD3γε ECD (human, UniProt P09693;P07766, biotin (BirA) on the C-terminal biotinylation sequence); assay: biomembrane force probe
mouse CD3γε ECD = mouse CD3γε ECD (Mus musculus (Mouse)., UniProt P11942;P22646, biotin (BirA) on the C-terminal biotinylation sequence); assay: micropipette adhesion frequency
Sequence of mouse CD3γε ECD (P11942 23-116, chain 1 of 2): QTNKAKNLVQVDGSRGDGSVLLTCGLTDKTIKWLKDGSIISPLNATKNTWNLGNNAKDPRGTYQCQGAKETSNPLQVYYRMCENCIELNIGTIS
Sequence of mouse CD3γε ECD (P22646 23-108, chain 2 of 2): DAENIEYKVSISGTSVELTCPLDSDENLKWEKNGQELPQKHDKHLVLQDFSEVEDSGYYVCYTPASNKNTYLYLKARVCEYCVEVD

Sequence of human CD3γε ECD (P09693 23-116, one chain of several): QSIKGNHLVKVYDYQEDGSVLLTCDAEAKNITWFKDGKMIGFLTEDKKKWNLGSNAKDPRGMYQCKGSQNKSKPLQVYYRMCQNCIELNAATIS

Molecule: 2B4 TCR, wild type, fully assembled on the surface of T hybridoma cells (from UniProt P01849 1-136)
- peak bond lifetime (at 15 pN) (K5:I-E^k): 1.6 s

B1: human CD3δε ECD (complex)
chain 1: FKIPIEELEDRVFVNCNTSITWVEGTVGTLLSDITRLDLGKRILDPRGIYRCNGTDIYKDKESTVQVHYRMCQSCVELDPATVA
chain 2: DGNEEMGGITQTPYKVSISGTTVILTCPQYPGSEILWQHNDKNIGGDEDDKNIGSDEDHLSLKEFSELEQSGYYVCYPRGSKPEDANFYLYLRARVCENCMEMD
modifications: biotin (BirA) on the C-terminal biotinylation sequence
- binding result (human CD3γε ECD): binds

B2: 2C11 full-length mAb (anti-CD3ε, clone 145-2C11) (antibody, V domains shown)
VH: EVQLVESGGGLVQPGKSLKLSCEASGFTFSGYGMHWVRQAPGRGLESVAYITSSSINIKYADAVKGRFTVSRDNAKNLLFLQMNILKSEDTAMYYCARFDWDKNYWGQGTMVTVSS
VL: DIQMTQSPSSLPASLGDRVTINCQASQDISNYLNWYQQKPGKAPKLLIYYTNKLADGVPSRFSGSGSGRDSSFTISSLESEDIGSYYCQQYYNYPWTFGPGTKLEIK
- binding result (mouse CD3γε ECD): binds
